The target of experiment [1] is T1, human CCR5 (human, UniProt P51681 1-352). The experiment can be described thus: cell-based or functional assay.
The target in experiment [2] is T1, human CCR5. The experiment in a line: epitope mapping with alanine mutants of CCR5.
Experiment [3] has as its target T1, human CCR5. The experiment in a line: cell-based or functional assay. The source holds these as a separate data set.
In experiment [4] the target is T1, human CCR5. The experiment can be described thus: cell ELISA on CCR5-expressing cells, hybridoma screening. A general note: ELISA stands for enzyme-linked immunosorbent assay.

The values that follow come from patent US20070036796A1 (ROCHE PALO ALTO, published 2007).

T1 sequence (P51681 whole entry): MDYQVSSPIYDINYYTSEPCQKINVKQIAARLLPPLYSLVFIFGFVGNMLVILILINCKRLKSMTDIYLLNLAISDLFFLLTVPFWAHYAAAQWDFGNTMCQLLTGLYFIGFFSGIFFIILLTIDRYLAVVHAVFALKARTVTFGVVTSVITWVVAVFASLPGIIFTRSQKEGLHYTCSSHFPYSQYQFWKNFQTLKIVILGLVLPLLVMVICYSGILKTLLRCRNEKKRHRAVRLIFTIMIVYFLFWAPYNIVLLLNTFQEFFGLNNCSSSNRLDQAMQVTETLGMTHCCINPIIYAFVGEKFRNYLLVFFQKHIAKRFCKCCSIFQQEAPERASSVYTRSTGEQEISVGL

B1: <CCR5>Pz03.1C5 (antibody, V domains shown)
VH: QVQLKQSGPGLVRPSQSLSITCTVSGFPLGIFGVHWVRQSPGKGLEWLGVIWKGGNTDYNAAFMSRLRITKDNSKSQVFFRMNSLQTDDTAIYYCAKVNLADAMDYWGQGTSVIVSS
VL: DIQMTQSPASLSASVGETVTITCRASGNIHGYLAWFQQKQGKSPQLLVYNTKTLAEGVPSRFSGSGSGTQFSLKINSLQPEDFGNYYCQHHYDLPRTFGGGTKLEIKR
notes: also called Antibody C; m<CCR5>Pz03.1C5
On to B1, for which, in the experiment with human CCR5 [1], the “IC50, PhenoSenseHIV assay (ViroLogic) using JRCSF strain” value amounted to 0.16 µg/ml and the “IC50, cell-cell fusion assay (gp160-expressing HeLa cells with CEM.NKR-CCR5-Luc cells, luciferase)” value came out at 0.38 µg/mL. Moreover, in the experiment with human CCR5 [2], the binding result is reported as “binds”. Also, in the experiment with human CCR5 [3], the “IC50, inhibition of HIV growth in human PBMC, JRCSF (p24 ELISA)” value was 0.013 µg/mL and the “IC50, inhibition of HIV growth in human PBMC, Nl-Bal (p24 ELISA)” value was 0.029 µg/mL.

B2: <CCR5>Pz02.1C11 (antibody, V domains shown)
VH: QVQLKQSGPGLVRPSQSLSITCTVSGFPLGVFGVHWVRQSPGKGLEWLGVIWKGGNTDYNAAFMSRLRISKDNSKSQVFFRMNSLQTDDTAIYYCAKVNLADAMDYWGQGTSVIVSS
VL: DIQMTQSPASLSASVGETVTITCRSSGNIHGYLAWFQQKQGKSPQLLVYNTKALAEGVPSRFSGSGSGTQFSLKINNLQPEDFGIYYCQHHYDLPRTFGGGTKLEIKR
notes: also called Antibody B
Regarding B2, in the experiment with human CCR5 [1], the “IC50, PhenoSenseHIV assay (ViroLogic) using JRCSF strain” value worked out at 0.17 µg/ml and the “IC50, cell-cell fusion assay (gp160-expressing HeLa cells with CEM.NKR-CCR5-Luc cells, luciferase)” value turned out to be 0.79 µg/mL. Besides, in the experiment with human CCR5 [3], the “IC50, inhibition of HIV growth in human PBMC, JRCSF (p24 ELISA)” value was 0.025 µg/mL and the “IC50, inhibition of HIV growth in human PBMC, Nl-Bal (p24 ELISA)” value came to 0.025 µg/mL. Moreover, in the experiment with human CCR5 [4], the binding result was “binds”.
